Experimental data reported in paper PMC7055376, “Evidence for binary Smc complexes lacking kite subunits in archaea” (IUCrJ, 2020).

What was measured:
[1] = target: the molecule itself; experiment: crystal structure; SeMet-substituted full-length PYCH_12850; 35% pentaerythritol propoxylate, 0.1 M MES pH 5.5, 0.4 M NaCl, 22°C
[2] = target: the molecule itself; experiment: SEC; individual ScpB homologue alone on Superdex 200 Increase 10/300 GL; 20 mM Tris-HCl pH 7.5, 100 mM NaCl, 1 mM DTT, 4°C; elution compared with 158 kDa and 43 kDa markers
[3] = target: T1, (His)10-MBP-tagged Thermococcus onnurineus ScpA (TON_1071) (Thermococcus onnurineus, UniProt B6YWU6); experiment: His pull-down (Ni-NTA) and size-exclusion chromatography
T1 chain: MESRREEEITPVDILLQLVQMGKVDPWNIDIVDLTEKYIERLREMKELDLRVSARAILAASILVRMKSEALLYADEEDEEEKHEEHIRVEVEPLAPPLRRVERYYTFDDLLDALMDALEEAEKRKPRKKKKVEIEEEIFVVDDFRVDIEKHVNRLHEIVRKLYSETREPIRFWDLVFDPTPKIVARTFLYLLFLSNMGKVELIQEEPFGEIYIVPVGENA

B1: Selenomethionine-substituted full-length PYCH_12850 (crystallised) (natural protein, Pyrococcus yayanosii, UniProt F8AFC4 1-192, looked up)
chain: MGLLEDKALVEAALFVAGRPLSLKELSKALGIKSLEYLEKLIELIASEYEERKSAIEVVKVLGDKWVMQLKQEYSQKVIHLMPKPELRAGELKTLALIAYLQPVEQSKIIKLRGSQAYEHIKKLLEMGLIYAEPYERTKLLGTTQKFAELYGFPENDPELIKEAFKKVIHSEYADLMEKIEKNNRKDKREEA
modifications: selenomethionine in place of methionine
notes: ScpB homologue PYCH_12850 of Pyrococcus yayanosii, full length; homodimer in the crystal; also called PYCH_12850 (SeMet); ScpB from Pyrococcus yayanosii; source: E. coli B834 (DE3) RIL, purified
binding result [1]: binds

B2: Metli_0606 (sole ScpB homologue of Methanofollis liminatans), untagged (natural protein, UniProt J1ANV5 1-161, looked up)
chain: MVDRTAMLEAALFVADAPVSYGDLAKIFGIKPGEVPALAQELSGRLSARSSPLEVIDSGESVFMVLKEEYAVLVYPVMRPEISRAVLRTLSVIAYRQPILQSDLIEIRGGGAYAHVEELVKRDLVARYRSGRSYLLQTTPEFSRYFKTSDLVGGQGRLDID
notes: ScpB homologue Metli_0606 of Methanofollis liminatans; untagged in the assays; also called ScpB homologue Metli_0606; source: E. coli BL21 (DE3) RIPL, purified
stoichiometry N [2]: 2

B3: TON_1955 (putative Thermococcus onnurineus ScpB), untagged (protein)
chain: MGLLEDKALVEAALFVSGRPLSIKELSRALGIRSLDYLEKLIELIAAEYAERKSAIEVVRVLGDKYVMQVKQEYSQRVVHLMPRPDLRTGELKTLALIAYLQPIEQSKLVKLRGSQAYEHIRKLLEMGLIYAEPYERTKLLGTTPKFAELYGFPENDPMMIKEAFKKVVHAEYSDLIAKLEGKEEKEEMPQESEE
binding result [3]: no binding
